Data from US20230105029A1.
“And” between values parts separate entries of the source, which are not always exact repeats. Equal entries are not always repeated. Where two headings read alike, the source gives them in different places.

How the values were obtained:
[1] = molecular target: human IL4Rα expressed on HEK293T-IL4Rα-STAT6-STAT6LUC-LB2 cells (human) (UniProt P24394); assay: cell-based or functional assay
[2] = molecular target: human IL4Rα expressed on HEK293T-IL4Rα-STAT6-STAT6LUC-LB2 cells (human) (UniProt P24394); assay: cell-based or functional assay; remark: listed apart in the source
[3] = molecular target: human IL4Rα expressed on HEK293T-IL4Rα-STAT6-STAT6LUC-LB2 cells (human) (UniProt P24394); assay: cell-based or functional assay; remark: listed apart in the source
[4] = molecular target: recombinant human IL4Rα-his protein (in house made) (human) (UniProt P24394); assay: capture ELISA, biotin-IL4Rα-his
[5] = molecular target: human IL4Rα expressed on 293F-IL4Rα cells (human) (UniProt P24394); assay: flow cytometry, 293F-IL4Rα cells
[6] = molecular target: human IL4Rα expressed on 293F-IL4Rα cells (human) (UniProt P24394); assay: flow cytometry, 293F-IL4Rα cells; remark: listed apart in the source
[7] = molecular target: human IL4Rα expressed on 293F-IL4Rα cells (human) (UniProt P24394); assay: flow cytometry, 293F-IL4Rα cells; remark: listed apart in the source
[8] = molecular target: marmoset monkey IL4Rα-his protein (marmoset monkey); assay: indirect ELISA, coated cal-IL4Rα-his
[9] = molecular target: cynomolgus monkey IL4Rα-his protein (cynomolgus monkey); assay: indirect ELISA, coated cyno IL4Rα-his
[10] = molecular target: cynomolgus monkey IL4Rα-his protein (cynomolgus monkey); assay: indirect ELISA, coated cyno IL4Rα-his; remark: listed apart in the source
[11] = molecular target: human IL4Rα expressed on 293F-IL4Rα cells (human) (UniProt P24394); assay: flow cytometry on 293F-IL4Rα cells
[12] = molecular target: human IL4Rα expressed on 293F-IL4Rα cells (human) (UniProt P24394); assay: flow cytometry on 293F-IL4Rα cells; remark: listed apart in the source
[13] = molecular target: human IL4Rα expressed on 293F-IL4Rα cells (human) (UniProt P24394); assay: flow cytometry on 293F-IL4Rα cells; remark: listed apart in the source
[14] = molecular target: human IL4Rα expressed on 293F-IL4Rα cells (human) (UniProt P24394); assay: flow cytometry on 293F-IL4Rα cells; remark: listed apart in the source
[15] = molecular target: human IL4Rα expressed on 293F-IL4Rα cells (human) (UniProt P24394); assay: flow cytometry on 293F-IL4Rα cells; remark: listed apart in the source
[16] = molecular target: human IL4Rα expressed on 293F-IL4Rα cells (human) (UniProt P24394); assay: flow cytometry on 293F-IL4Rα cells; remark: listed apart in the source
[17] = molecular target: human IL4Rα expressed on 293F-IL4Rα cells (human) (UniProt P24394); assay: flow cytometry on 293F-IL4Rα cells; remark: listed apart in the source
[18] = molecular target: marmoset monkey IL4Rα-his protein (marmoset monkey); assay: indirect ELISA on coated cal-IL4Rα-his
[19] = molecular target: marmoset monkey IL4Rα-his protein (marmoset monkey); assay: indirect ELISA on coated cal-IL4Rα-his; remark: listed apart in the source
[20] = molecular target: recombinant human IL4Rα-his protein (in house made) (human) (UniProt P24394); assay: SPR (Biacore), antibody captured, IL4Rα-his flowed
[21] = molecular target: recombinant human IL4Rα-his protein (in house made) (human) (UniProt P24394); assay: SPR (Biacore), antibody captured, IL4Rα-his flowed; remark: listed apart in the source
[22] = molecular target: recombinant human IL4Rα-his protein (in house made) (human) (UniProt P24394); assay: SPR (Biacore), antibody captured, IL4Rα-his flowed; remark: listed apart in the source
[23] = molecular target: recombinant human IL4Rα-his protein (in house made) (human) (UniProt P24394); assay: SPR (Biacore), antibody captured, IL4Rα-his flowed; remark: listed apart in the source
[24] = molecular target: recombinant human IL4Rα-his protein (in house made) (human) (UniProt P24394); assay: SPR (Biacore), antibody captured, IL4Rα-his flowed; remark: listed apart in the source
[25] = molecular target: cynomolgus monkey IL4Rα-his protein (cynomolgus monkey); assay: indirect ELISA on coated cynomolgus IL4Rα-his
[26] = molecular target: cynomolgus monkey IL4Rα-his protein (cynomolgus monkey); assay: indirect ELISA on coated cynomolgus IL4Rα-his; remark: listed apart in the source
[27] = molecular target: cynomolgus monkey IL4Rα-his protein (cynomolgus monkey); assay: indirect ELISA on coated cynomolgus IL4Rα-his; remark: listed apart in the source
[28] = molecular target: human IL4Rα expressed on 293F-IL4Rα cells (human) (UniProt P24394); assay: flow cytometry, blocks biotin-IL4 binding to 293F-IL4Rα cells
[29] = molecular target: human IL4Rα expressed on 293F-IL4Rα cells (human) (UniProt P24394); assay: as above; remark: listed apart in the source
[30] = molecular target: recombinant human IL4Rα-his protein (in house made) (human) (UniProt P24394); assay: competitive ELISA, blocks biotin-IL4 binding to coated IL4Rα-his
[31] = molecular target: recombinant human IL4Rα-his protein (in house made) (human) (UniProt P24394); assay: as above; remark: listed apart in the source
[32] = molecular target: recombinant human IL4Rα-his protein (in house made) (human) (UniProt P24394); assay: as above; remark: listed apart in the source
[33] = molecular target: human IL4Rα expressed on 293F-IL4Rα cells (human) (UniProt P24394); assay: flow cytometry on 293F-IL4Rα cells, blocked ligand biotin human IL4
[34] = molecular target: human IL4Rα expressed on 293F-IL4Rα cells (human) (UniProt P24394); assay: as above; remark: listed apart in the source
[35] = molecular target: human IL4Rα expressed on 293F-IL4Rα cells (human) (UniProt P24394); assay: as above; remark: listed apart in the source
[36] = molecular target: human IL4Rα expressed on 293F-IL4Rα cells (human) (UniProt P24394); assay: as above; remark: listed apart in the source
[37] = molecular target: human IL4Rα expressed on 293F-IL4Rα cells (human) (UniProt P24394); assay: as above; remark: listed apart in the source
[38] = molecular target: recombinant human IL4Rα-his protein (in house made) (human) (UniProt P24394); assay: competitive ELISA: coated human IL4Rα-his, blocked ligand biotin human IL4
[39] = molecular target: recombinant human IL4Rα-his protein (in house made) (human) (UniProt P24394); assay: as above; remark: listed apart in the source
[40] = molecular target: recombinant human IL4Rα-his protein (in house made) (human) (UniProt P24394); assay: as above; remark: listed apart in the source
[41] = molecular target: recombinant human IL4Rα-his protein (in house made) (human) (UniProt P24394); assay: as above; remark: listed apart in the source
[42] = molecular target: recombinant human IL4Rα-his protein (in house made) (human) (UniProt P24394); assay: as above; remark: listed apart in the source
[43] = molecular target: recombinant human IL4Rα-his protein (in house made) (human) (UniProt P24394); assay: competitive ELISA, blocks biotin-IL4Rα-his binding to coated Benchmark (self-competition)
[44] = molecular target: recombinant human IL4Rα-his protein (in house made) (human) (UniProt P24394); assay: as above; remark: listed apart in the source
[45] = molecular target: recombinant human IL4Rα-his protein (in house made) (human) (UniProt P24394); assay: capture ELISA: antibody captured on anti-IgG Fc plate, biotin human IL4Rα-his detected
[46] = molecular target: recombinant human IL4Rα-his protein (in house made) (human) (UniProt P24394); assay: as above; remark: listed apart in the source
[47] = molecular target: recombinant human IL4Rα-his protein (in house made) (human) (UniProt P24394); assay: as above; remark: listed apart in the source
[48] = molecular target: recombinant human IL4Rα-his protein (in house made) (human) (UniProt P24394); assay: as above; remark: listed apart in the source
[49] = molecular target: recombinant human IL4Rα-his protein (in house made) (human) (UniProt P24394); assay: as above; remark: listed apart in the source
[50] = molecular target: recombinant human IL4Rα-his protein (in house made) (human) (UniProt P24394); assay: as above; remark: listed apart in the source
[51] = molecular target: recombinant human IL4Rα-his protein (in house made) (human) (UniProt P24394); assay: competitive ELISA: antibody mixed with biotin human IL4Rα-his, competitor plate-coated Benchmark
[52] = molecular target: recombinant human IL4Rα-his protein (in house made) (human) (UniProt P24394); assay: as above; remark: listed apart in the source
[53] = molecular target: recombinant human IL4Rα-his protein (in house made) (human) (UniProt P24394); assay: as above; remark: listed apart in the source
[54] = molecular target: recombinant human IL4Rα-his protein (in house made) (human) (UniProt P24394); assay: as above; remark: listed apart in the source

Sequence of cynomolgus monkey IL4Rα-his protein (cynomolgus monkey) (chain, as listed by the source): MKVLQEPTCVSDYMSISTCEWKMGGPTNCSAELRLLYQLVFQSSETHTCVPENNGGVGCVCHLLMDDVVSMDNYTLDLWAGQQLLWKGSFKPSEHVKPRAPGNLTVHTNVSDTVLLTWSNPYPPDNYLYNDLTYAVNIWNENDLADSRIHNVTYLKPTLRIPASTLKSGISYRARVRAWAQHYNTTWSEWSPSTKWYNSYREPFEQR
Sequence of marmoset monkey IL4Rα-his protein (marmoset monkey) (chain, as listed by the source limits assumed): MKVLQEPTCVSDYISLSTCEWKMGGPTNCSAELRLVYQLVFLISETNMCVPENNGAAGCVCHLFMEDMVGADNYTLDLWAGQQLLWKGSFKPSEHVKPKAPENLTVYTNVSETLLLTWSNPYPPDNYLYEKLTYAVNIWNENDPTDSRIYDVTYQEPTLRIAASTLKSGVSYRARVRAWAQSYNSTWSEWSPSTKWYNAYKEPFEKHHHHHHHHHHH

B1: anti-IL4Rα benchmark (Dupilumab) (antibody, INN chains, looked up, V domains shown)
VH: EVQLVESGGGLEQPGGSLRLSCAGSGFTFRDYAMTWVRQAPGKGLEWVSSISGSGGNTYYADSVKGRFTISRDNSKNTLYLQMNSLRAEDTAVYYCAKDRLSITIRPRYYGLDVWGQGTTVTVSS
VL: DIVMTQSPLSLPVTPGEPASISCRSSQSLLYSIGYNYLDWYLQKSGQSPQLLIYLGSNRASGVPDRFSGSGSGTDFTLKISRVEAEDVGFYYCMQALQTPYTFGQGTKLEIKR
With B1 the Inhibition on IL4 induced STAT6 phosphorylation (IC50, nM) [1] was 0.28 nM, the Inhibition on IL13 induced STAT6 phosphorylation (IC50, nM) [1] was 0.53 nM and the Inhibition on IL4 induced STAT6 phosphorylation (IC50, nM) [2] was 0.37 nM. The Inhibition on IL13 induced STAT6 phosphorylation (IC50, nM) [2] was 0.48 nM, the Inhibition on IL4 induced STAT6 phosphorylation (IC50, nM) [3] was 0.7 nM and the Inhibition on IL13 induced STAT6 phosphorylation (IC50, nM) [3] was 0.84 nM. For the same binder, the EC50 [4] was 0.05 nM, the EC50 [5] was 0.08 nM and the EC50 [6] was 0.46 nM. For the same binder, the EC50 [7] was 0.4 nM and 0.53 nM, the EC50 [8] was 1.72 nM and 1.84 nM and the EC50 [9] was 0.95 nM. For the same binder, the EC50 [10] was 0.67 nM and 3.34 nM, the EC50 [11] was 0.134 nM and the EC50 [12] was 0.128 nM. The EC50 [13] was 0.254 nM, the EC50 [14] was 0.0816 nM and the EC50 [15] was 0.462 nM. For the same binder, the EC50 [16] was 0.526 nM, the EC50 [17] was 0.397 nM and the EC50 [18] was 1.84 nM. It also gave an EC50 [19] of 1.72 nM, a Kd [20] of 0.17 nM and a koff [20] of 3.77e-05 s⁻¹. It also gave a kon [20] of 222000 M⁻¹ s⁻¹, a Kd [21] of 0.466 nM and a Kd [22] of 0.444 nM. For the same binder, the koff [22] was 0.00033 s⁻¹, the kon [22] was 742000 M⁻¹ s⁻¹ and the Dissociation % [23] was -2.64%. For the same binder, the End (RU) [23] was 70 RU, the Kd [23] was 0.188 nM and the Start (RU) [23] was 71.9 RU. For the same binder, the koff [23] was 6.25e-05 s⁻¹, the kon [23] was 333000 M⁻¹ s⁻¹ and the Kd [24] was 0.746 nM. It also gave an EC50 [25] of 0.954 nM, an EC50 [26] of 3.33 nM and an EC50 [27] of 0.674 nM. The IC50 [28] was 0.22 nM, the IC50 [29] was 0.42 nM and 0.51 nM and the IC50 [30] was 0.68 nM. The IC50 [31] was 2.06 nM, the IC50 [32] was 1.74 nM and 1.56 nM and the IC50 [33] was 0.302 nM. For the same binder, the IC50 [34] was 0.313 nM, the IC50 [35] was 0.22 nM and the IC50 [36] was 0.505 nM. For the same binder, the IC50 [37] was 0.421 nM, the IC50 [38] was 0.682 nM and the IC50 [39] was 0.269 nM. It also gave an IC50 [40] of 2.06 nM, an IC50 [41] of 1.56 nM and an IC50 [42] of 1.74 nM. The IC50 [43] was 0.02 nM, the IC50 [44] was 0.19 nM and 0.13 nM and the EC50 [45] was 0.0485 nM. The EC50 [46] was 0.0284 nM, the EC50 [47] was 0.0228 nM and the EC50 [48] was 0.0479 nM. It also gave an EC50 [49] of 0.0505 nM, an EC50 [50] of 0.0517 nM and an IC50 [51] of 0.0235 nM. It also gave an IC50 [52] of 0.0158 nM, an IC50 [53] of 0.132 nM and an IC50 [54] of 0.189 nM.
